Experimental findings from US20050026219A1, “Process for label-free measurement of modified substrate” (Boehringer Ingelheim Pharma GmbH & Co. KG, priority 2001, published 2005) are described below.

Assay [1] addresses phosphorylated Poly-(Glu, Tyr) 4:1 (after reaction with EGF-RK and ATP). Description: RIfS solution competition; mean of the six complete mixtures of Table 10.
In assay [2] the target is Poly-(Glu, Tyr) 4:1 (MW: 39100, Messrs. Sigma; CAS number 97105-00-5). Briefly: RIfS solution competition; mean of the two mixtures without ATP of Table 10.
For assay [3] the target is unchanged. Description: RIfS solution competition: PGT 10 ug/50 ul, EGF-RK 1 Unit/50 ul, no ATP; free antibody read on phosphotyrosine sensor.
The target is the same in assay [4]. Description: RIfS solution competition: PGT 10 ug/50 ul, EGF-RK 2 Units/50 ul, no ATP; free antibody read on phosphotyrosine-diamino-PEG 2000 sensor.
The target of assay [5] is phosphorylated Poly-(Glu, Tyr) 4:1 (after reaction with EGF-RK and ATP). Briefly: RIfS solution competition: PGT 10 ug/50 ul, EGF-RK 1 Unit/50 ul, ATP, no inhibitor (genistein series); phosphotyrosine-diamino-PEG 2000 sensor.
For assay [6], the target named is Raytide EL (protein-tyrosine-kinase substrate, MW 2476 Dalton, Messrs. Calbiochem). Description: RIfS solution competition: Raytide EL 2 ug/50 ul, EGF-RK 0.5 Units/50 ul, no ATP; free antibody read on phosphotyrosine-diamino-PEG 2000 sensor.
Assay [7] deals with phosphorylated Poly-(Glu, Tyr) 4:1 (after reaction with EGF-RK and ATP). Briefly: RIfS solution competition: PGT 10 ug/50 ul, EGF-RK 1 Unit/50 ul, ATP, no inhibitor (staurosporin series); phosphotyrosine-diamino-PEG 2000 sensor.
Assay [8] shares this target. Briefly: RIfS solution competition: PGT 10 ug/50 ul, EGF-RK 1 Unit/50 ul, ATP, no inhibitor (Tyrphostin 47 series); phosphotyrosine-diamino-PEG 2000 sensor.
Assay [9] addresses oligopeptide Ac-Ile-Tyr-Gly-Glu-Phe-NH2 "M-2165" (Messrs. Bachem, MW 668.8). Briefly: RIfS solution competition: M-2165 10 ug/50 ul, p60c-src-kinase 2 Units/50 ul, no ATP; free antibody read on phosphotyrosine-diamino-PEG 2000 sensor.
Assay [10] has the same target. Description: RIfS solution competition: M-2165 10 ug/50 ul, p60c-src-kinase 4 Units/50 ul, no ATP; free antibody read on phosphotyrosine-aminodextrane (AMD) sensor.
In assay [11] the target is phosphorylated Poly-(Glu, Tyr) 4:1 (after reaction with EGF-RK and ATP). Briefly: RIfS solution competition: PGT 10 ug/50 ul, EGF-RK 1 Unit/50 ul, ATP, no inhibitor (erbstatin analogue series); phosphotyrosine-diamino-PEG 2000 sensor.
Assay [12] addresses Poly-(Glu, Tyr) 4:1 (MW: 39100, Messrs. Sigma; CAS number 97105-00-5). Description: RIfS solution competition: PGT 10 ug/50 ul, EGF-RK 1 Unit/50 ul, no ATP, no inhibitor (control of the genistein series); phosphotyrosine-diamino-PEG 2000 sensor.
For assay [13] the target is unchanged. Briefly: RIfS solution competition: PGT 10 ug/50 ul, EGF-RK 1 Unit/50 ul, no ATP, no inhibitor (control of the staurosporin series); phosphotyrosine-diamino-PEG 2000 sensor.
Assay [14] shares this target. Description: RIfS solution competition: PGT 10 ug/50 ul, EGF-RK 1 Unit/50 ul, no ATP, no inhibitor (control of the Tyrphostin 47 series); phosphotyrosine-diamino-PEG 2000 sensor.
Assay [15] addresses phosphorylated Poly-(Glu, Tyr) 4:1 (after reaction with EGF-RK and ATP). Description: RIfS solution competition: PGT 10 ug/50 ul, EGF-RK 2 Units/50 ul, ATP; free antibody read on phosphotyrosine-diamino-PEG 2000 sensor; lower value = antibody taken up by phosphorylated substrate.
Assay [16] concerns the target phosphorylated Raytide EL (after reaction with EGF-RK and ATP). Description: RIfS solution competition: Raytide EL 2 ug/50 ul, EGF-RK 0.5 Units/50 ul, ATP; free antibody read on phosphotyrosine-diamino-PEG 2000 sensor; lower value = antibody taken up by phosphorylated substrate.
The target of assay [17] is Poly-(Glu, Tyr) 4:1 (MW: 39100, Messrs. Sigma; CAS number 97105-00-5). Description: RIfS solution competition: antibody incubated with mixture (PGT 10 ug/50 ul, EGF-RK 0.1 Unit/50 ul, EGF 0.5 ug/50 ul, no ATP), free antibody read on phosphotyrosine-diamino-PEG 2000 sensor; high value = antibody not taken up by substrate.
In assay [18] the target is phosphorylated Poly-(Glu, Tyr) 4:1 (after reaction with EGF-RK and ATP). Description: RIfS solution competition: antibody incubated with mixture (PGT 10 ug/50 ul, EGF-RK 0.1 Unit/50 ul, EGF 0.5 ug/50 ul, ATP), free antibody read on phosphotyrosine-diamino-PEG 2000 sensor; lower value = antibody taken up by phosphorylated substrate.

Several values for one entry are separate records, joined by “and”; a condition that tells them apart may be missing. Equal entries are not always repeated.

As for “monoclonal murine antibody IgG1 from Ascites: Anti-PhosphoTyrosine (Clone number: PT-66, Messrs. Sigma)”, the optical layer thickness in nm (mean value) came to 0.19 nm in assay [1] and 2.16 nm in assay [2]. Also, the Optical layer thickness in nm in [3] was 2.06 nm and 2.27 nm; in assay [4], 2.65 nm; in [5], 0.446 nm; in [6], 3.11 nm; in assay [7], 0.233 nm; in assay [8], 0.613 nm. Further, the Optical layer thickness in nm in [9] was 3.2 nm; in assay [10], 3.81 nm; in assay [11] it was 0.852 nm; in assay [12] it was 2.4 nm; in assay [13] it was 2.99 nm; in [14] it was 2.3 nm. Besides, the Optical layer thickness in nm in assay [15] is 0.225 nm; in [16], 1.83 nm; in assay [17] it was 2.59 nm; in [18] it was 2.04 nm.
